Test results published in the Human Domainome abundance scans (Beltran et al. 2025).

B1: Tripartite motif-containing protein 44, residues 174 to 218; numbered along this chain, Q96DX7 (parent)
chain: VAKRKCPDHGLDLSTYCQEDRQLICVLCPVIGAHQGHQLSTLDEA
B2: Far upstream element-binding protein 2, residues 142 to 214; numbered along this chain, Q92945 (parent)
chain: RTSMTEEYRVPDGMVGLIIGRGGEQINKIQQDSGCKVQISPDSGGLPERSVSLTGAPESVQKAKMMLDDIVSR

Variants of: B1
Assay: abundance fitness (aPCA) (normalised: wild type 0, dead -1); higher = more abundant; growth selection in yeast, the domain comes from the species named
Settings: Homo sapiens

Abundance fitness of substitutions, site by site:
A45: W -0.036; T 0.021; E -0.096; Q 0.044; P 0.004; M -0.029; I 0.168; D 0.002; L -0.093; S -0.243; V -0.022; C -0.058; K -0.046; R -0.006
E44: R -0.032; T 0.014; V -0.065; Q -0.031; L -0.082; S -0.01; Y -0.232; W -0.14; N -0.014; M -0.058; K -0.056

Variants of: B2
Assay: as above
Settings: Homo sapiens

Abundance fitness of substitutions, site by site:
R9: C -0.132; T 0.053; P 0.041; M 0.064; Q 0.137; K 0.119; L 0.076; S -0.024; A -0.145; E -0.094; G -0.235; N 0.078; D -0.155; Y 0.025; I 0.055; F 0.068; H 0.135; V -0.046; W -0.033
V15: M 0.035; P -0.462; S -0.219; L 0.068; C -0.22; R -0.335; W -0.081; K -0.251; D -0.217; Y -0.197; Q -0.272; H -0.214; E -0.03; F -0.076; G -0.282; A -0.053; N -0.376; T -0.227; I -0.06
V10: D -0.467; T -0.464; L 0.068; C -0.137; M 0.041; K -0.603; N -0.567; F -0.132; P -0.456; Y -0.224; R -0.741; I -0.02; Q -0.709; S -0.628; E -0.456; A -0.289; W -0.726
P11: N -0.371; W -0.765; G -0.472; L -0.362; D -0.122; M -0.375; A -0.131; I -0.277; K -0.178; E -0.193; H -0.536; T -0.158; Y -0.712; F -1.07; Q -0.221; R -0.299; V -0.425
G16: Q -0.034; P -0.015; N -0.093; T -0.101; S -0.076; D 0.136; K -0.068; W -0.229; C -0.334; V -0.619; I -0.994; L -0.495; H -0.019; E 0.049; R -0.078; F -0.499; A -0.037
E6: N -0.255; W -0.086; F -0.1; T 0.125; I -0.086; D -0.171; Q 0.045; H -0.062; S -0.017; G -0.189; K -0.027; L 0.07; V 0.097; M 0.187; R -0.068; A -0.021; Y -0.147; C 0.051
G13: V -0.389; E 0.12; K 0.066; R 0.07; T 0.035; S 0.122; M -0.052; A -0.072; F -0.184; C -0.127; Q 0.09; L -0.174; D 0.134; W -0.097; Y -0.005; I -0.039; P -0.124; N 0.18
S3: V 0.144; A 0.028; G 0.003; C 0.152; L 0.074; N 0.224; P 0.043; I 0.137; Q 0.124; Y 0.125; T 0.213; D 0.17; F 0.251; K 0.219; H 0.009; E 0.151; W 0.05
I18: N -0.345; Q -0.346; L 0.035; M -0.17; F -0.122; C -0.595; P -0.324; K -0.333; G -0.363; A -0.276; S -0.398; E -0.287; D -0.312; H -0.51
T5: C -0.125; D -0.319; W -0.456; N -0.16; V -0.154; R -0.168; P -0.62; Q -0.117; Y -0.248; E -0.304; L -0.384; A -0.248; H -0.235; F -0.331; G -0.485; S -0.11
L17: C -0.118; W -0.111; G -0.023; S -0.021; V -0.113; E 0.074; T 0.045; Y -0.147; D 0.061; N -0.119; A 0.016; I -0.045; Q -0.028; K -0.059; H -0.087; P -0.199; F -0.072
M4: I -0.096; V -0.069; F 0.02; T -0.063; C 0.045; G -0.431; A -0.716; H -0.107; E -0.085; W -0.15; N -0.178; Q 0.057; P -0.365; D -0.106; L -0.002; R -0.079; S -0.072; K 0.029
E7: K -0.115; I -0.028; A -0.136; F 0.074; M -0.02; Q 0.017; H 0.043; P -0.137; C -0.178; N -0.109; T 0.046; D -0.036; L 0.021; S -0.088; Y 0.028; W -0.1; V -0.194
D12: R 0.088; H 0.013; Y -0.204; F -0.153; C -0.175; K -0.032; N -0.14; E -0.003; W -0.524; Q -0.039; G -0.04; T 0.105; P 0.051; S 0.054; V -0.097; I 0.041
T2: K -0.007; A -0.13; I -0.04; W -0.567; P -0.227; S 0.071; V 0.004; E -0.025; R -0.169; L -0.079; N 0.109; Y -0.016; H -0.138; Q -0.421; D 0.003; C -0.198; M 0.104; G -0.04
R1: P -0.27; D 0.017; A -0.205; K 0.166; M 0.19; E 0.075; F -0.297; Y -0.195; W -0.143; I 0.195; G -0.071; H -0.256; N 0.101; L -0.071; Q 0.036; S -0.072
Y8: R -0.455; V -0.057; N -0.536; K -0.417; T -0.214; G -0.576; D -0.477; L -0.089; H -0.12; Q -0.51; E -0.496; W -0.007; I -0.061; F -0.116; P -0.342; C -0.609; S -0.472
M14: I -0.003; F -0.349; L -0.048; T -0.21; D -0.209; V -0.094; P -0.898; W -0.319; G -0.361; R -0.314; S -0.219; A -0.111; N -0.148; E -0.208; Y -0.19; Q -0.243; H -0.235; K -0.017
